In the supplement of paper PMC11246515:
± gives the standard deviation of the averaged measurements.

Assay: total protein half-life in vivo (active degradation + dilution); higher = more stable protein
[1] = E. coli NCM3722 delta-clpP delta-lon delta-hslV, growth: N-lim chemostat, doubling time 6 h
[2] = E. coli NCM3722 delta-clpP, growth: N-lim chemostat, doubling time 6 h
[3] = E. coli NCM3722 delta-hslV, growth: N-lim chemostat, doubling time 6 h
[4] = E. coli NCM3722 delta-lon, growth: N-lim chemostat, doubling time 6 h
[5] = E. coli NCM3722 delta-smpB, growth: N-lim chemostat, doubling time 6 h
[6] = wild type E. coli NCM3722, growth: C-lim chemostat, doubling time 3 h
[7] = wild type E. coli NCM3722, growth: C-lim chemostat, doubling time 6 h
[8] = wild type E. coli NCM3722, growth: C-lim chemostat, doubling time 12 h
[9] = wild type E. coli NCM3722, growth: N-lim chemostat, doubling time 6 h
[10] = wild type E. coli NCM3722, growth: N-lim chemostat, doubling time 12 h
[11] = wild type E. coli NCM3722, growth: P-lim chemostat, doubling time 6 h
[12] = wild type E. coli NCM3722, growth: P-lim chemostat, doubling time 12 h

Sequence	total protein half-life in vivo [1] [h]	total protein half-life in vivo [2] [h]	total protein half-life in vivo [3] [h]	total protein half-life in vivo [4] [h]	total protein half-life in vivo [5] [h]	total protein half-life in vivo [6] [h]	total protein half-life in vivo [7] [h]	total protein half-life in vivo [8] [h]	total protein half-life in vivo [9] [h]	total protein half-life in vivo [10] [h]	total protein half-life in vivo [11] [h]	total protein half-life in vivo [12] [h]
MKAAAKTQKPKRQEEHANFISWRFALLCGCILLALAFLLGRVAWLQVISPDMLVKEGDMRSLRVQQVSTSRGMITDRSGRPLAVSVPVKAIWADPKEVHDAGGISVGDRWKALANALNIPLDQLSARINANPKGRFIYLARQVNPDMADYIKKLKLPGIHLREESRRYYPSGEVTAHLIGFTNVDSQGIEGVEKSFDKWLTGQPGERIVRKDRYGRVIEDISSTDSQAAHNLALSIDERLQALVYRELNNAVAFNKAESGSAVLVDVNTGEVLAMANSPSYNPNNLSGTPKEAMRNRTITDVFEPGSTVKPMVVMTALQRGVVRENSVLNTIPYRINGHEIKDVARYSELTLTGVLQKSSNVGVSKLALAMPSSALVDTYSRFGLGKATNLGLVGERSGLYPQKQRWSDIERATFSFGYGLMVTPLQLARVYATIGSYGIYRPLSITKVDPPVPGERVFPESIVRTVVHMMESVALPGGGGVKAAIKGYRIAIKTGTAKKVGPDGRYINKYIAYTAGVAPASQPRFALVVVINDPQAGKYYGGAVSAPVFGAIMGGVLRTMNIEPDALTTGDKNEFVINQGEGTGGRS [P0AD68]	2.8 ± 0.043	2.39 ± 0.032	2.53 ± 0.39	2.31 ± 0.099	2.77 ± 0.059	1.75 ± 0.11	2.35 ± 0.13	2.75 ± 0.35	2.61 ± 0.035	3.15 ± 0.18	3.311 ± 0.027	4.83 ± 0.71
MKAFNKLFSLVVASVLVFSLAGCGDKEESKKFSANLNGTEIAITYVYKGDKVLKQSSETKIQFASIGATTKEDAAKTLEPLSAKYKNIAGVEEKLTYTDTYAQENVTIDMEKVDFKALQGISGINVSAEDAKKGITMAQMELVMKAAGFKEVK	5.1	5.39	5.31	5.76 ± 0.26	4.61 ± 0.12	2.68	4.07 ± 0.38	7.55	5.76 ± 0.11	9.71 ± 1.6	5.3	
MKAIDNQIRNISSSHQDKHSDKVNSHQHHGKVDKTHRAKIVEFDKLDNDSQIDNDFGLHIIYFLQHGHWKVNDRSHQMEKVWFYNSEPSIDIQEYNRFADNTTDTFIFTIIPDNNHVLKLSSPITVTVECKGGYYFINSSGDKSDIIYKVDGLSIIARNFFTLLSGNFKPDWRWDVSKETFTKEKFDSYVKSVFSKIDFYKQCGVINPQNANTAYFGDTDGRVGAVLYALLVSGHIGIREKGWSLLCELLKHEEMASSAYKHKNNKVLYDLLNTRDMILNELHQHVFLKDDAITPCIFLGDHTGDRFSTIFGDKYILTLLNSMRNMEGNKDSRINKNVVVLAGNHEINFNGNYTARLANHKLSAGDTYNLIKTLDVCNYDSERQVLTSHHGIIRDEEKKCYCLGALQVPFNQMKNPTDPEELANIFNKKHKEHMDDPLFHLIRSNTLKPTPVYANYFDNTTDFRPARERIFICGETLKGEDPSKYIRQKYGHHGPGVDHNQQFDNGIMGLNSLKEARDKNNKIIYSSGLSCFQLH		2.18 ± 0.21	2.35 ± 0.097	2.82	2.53	2.6 ± 0.029	4.34 ± 0.27	6	2.27 ± 0.28	3.75	5.32 ± 0.097	8.76 ± 0.24
MKAKAILLASVLLVGCQSTGNVQQHAQSLSAAGQGEAAKFTSQARWMDDGTSIAPDGDLWAFIGDELKMGIPENDRIREQKQKYLRNKSYLHDVTLRAEPYMYWIAGQVKKRNMPMELVLLPIVESAFDPHATSGANAAGIWQIIPSTGRNYGLKQTRNYDARRDVVASTTAALNMMQRLNKMFDGDWLLTVAAYNSGEGRVMKAIKTNKARGKSTDFWSLPLPQETKQYVPKMLALSDILKNSKRYGVRLPTTDESRALARVHLSSPVEMAKVADMAGISVSKLKTFNAGVKGSTLGASGPQYVMVPKKHADQLRESLASGEIAAVQSTLVADNTPLNSRVYTVRSGDTLSSIASRLGVSTKDLQQWNKLRGSKLKPGQSLTIGAGSSAQRLANNSDSITYRVRKGDSLSSIAKRHGVNIKDVMRWNSDTANLQPGDKLTLFVKNNNMPDS [P0AEZ7]	3.87 ± 0.74											
MKALTYHGPHHVQVENVPDPGVEQADDIILRITATAICGSDLHLYRGKIPQVKHGDIFGHEFMGEVVETGKDVKNLQKGDRVVIPFVIACGDCFFCRLQQYAACENTNAGKGAALNKKQIPAPAALFGYSHLYGGVPGGQAEYVRVPKGNVGPFKVPPLLSDDKALFLSDILPTAWQAAKNAQIQQGSSVAVYGAGPVGLLTIACARLLGAEQIFVVDHHPYRLHFAADRYGAIPINFDEDSDPAQSIIEQTAGHRGVDAVIDAVGFEAKGSTTETVLTNLKLEGSSGKALRQCIAAVRRGGIVSVPGVYAGFIHGFLFGDAFDKGLSFKMGQTHVHAWLGELLPLIEKGLLKPEEIVTHYMPFEEAARGYEIFEKREEECRKVILVPGAQSAEAAQKAVSGLVNAMPGGTI	5.38 ± 0.18		4.446 ± 0.011	4.83 ± 0.24	3.69 ± 2.5		0.447	10.2	4.75 ± 0.35	7.88 ± 0.2	4.4 ± 0.32	13.1 ± 3.3
MKAVSRVHITPHMHWDREWYFTTEESRILLVNNMEEILCRLEQDNEYKYYVLDGQTAILEDYFAVKPENKDRVKKQVEAGKLIIGPWYTQTDTTIVSAESIVRNLMYGMRDCLAFGEPMKIGYLPDSFGMSGQLPHIYNGFGITRTMFWRGCSERHGTDKTEFLWQSSDGSEVTAQVLPLGYAIGKYLPADENGLRKRLDSYFDVLEKASVTKEILLPNGHDQMPLQQNIFEVMDKLREIYPQRKFVMSRFEEVFEKIEAQRDNLATLKGEFIDGKYMRVHRTIGSTRMDIKIAHARIENKIVNLLEPLATLAWTLGFEYHHGLLEKMWKEILKNHAHDSIGCCCSDKVHREIVARFELAEDMADNLIRFYMRKIADNMPQSDADKLVLFNLMPWPREEVINTTVRLRASQFNLRDDRGQPVPYFIRHAREIDPGLIDRQIVHYGNYDPFMEFDIQINQIVPSMGYRTLYIEANQPGNVIAAKSDAEGILENAFWQIALNEDGSLQLVDKDSGVRYDRVLQIEESSDDGDEYDYSPAKEEWVITAANAKPQCDIIHEAWQSRAVIRYDMAVPLNLSERSARQSTGRVGVVLVVTLSHNSRRIDVDINLDNQADDHRLRVLVPTPFNTDSVLADTQFGSLTRPVNDSAMNNWQQEGWKEAPVPVWNMLNYVALQEGRNGMAVFSEGLREFEVIGEEKKTFAITLLRGVGLLGKEDLLLRPGRPSGIKMPVPDSQLRGLLSCRLSLLSYTGTPTAAGVAQQARAWLTPVQCYNKIPWDVMKLNKAGFNVPESYSLLKMPPVGCLISALKKAEDRQEVILRLFNPAESATCDATVAFSREVISCSETMMDEHITTEENQGSNLSGPFLPGQSRTFSYRLA	6.07				1.754 ± 0.011					3.4		
